Paper PMC12065222
Each block holds one substance with its values, some of them ahead of it.

Legend:
[1] = molecular target: PD-1 on IcAR-PD-1 cells (Immune Checkpoint Artificial Reporter overexpressing PD-1) (human) (UniProt Q15116)
[2] = molecular target: PD-1 on primary human CD8+ T cells (human (endogenous in primary T cells of donors)) (UniProt Q15116)
[3] = molecular target: PD-1 on primary human CD8+ T cells (human (endogenous in primary T cells of donors)) (UniProt Q15116); remark: listed apart in the source
[4] = molecular target: PD-1 on IcAR-PD-1 cells (Immune Checkpoint Artificial Reporter overexpressing PD-1) (human) (UniProt Q15116); remark: listed apart in the source
[5] = molecular target: PD-1 on IcAR-PD-1 cells (Immune Checkpoint Artificial Reporter overexpressing PD-1) (human) (UniProt Q15116); remark: listed apart in the source
[6] = molecular target: PD-1 on IcAR-PD-1 cells (Immune Checkpoint Artificial Reporter overexpressing PD-1) (human) (UniProt Q15116); remark: listed apart in the source
[7] = soluble PD-L1 ELISA of supernatants, MDA-MB231 and MCF7; settings: glycan lost; control: WT PD-L1
[8] = total-cellular/membrane PD-L1 ratio, flow cytometry, fixed MCF7; settings: glycan lost; control: WT PD-L1, MCF7
[9] = total-cellular/membrane PD-L1 ratio, flow cytometry, fixed MDA-MB231; settings: glycan lost; control: WT PD-L1, MDA-MB231
[10] = PD-L1 ELISA of cell lysates, MDA-MB231 and MCF7; settings: glycan lost; control: WT PD-L1
[11] = IcAR-PD-1 mIL-2 with ICBs, A375 and A549 cells; settings: glycan lost; control: WT PD-L1
[12] = EV-bound PD-L1 ELISA after ultracentrifugation; settings: glycan lost; control: WT PD-L1
[13] = surface PD-L1 flow cytometry, MDA-MB231; settings: glycan lost; control: WT PD-L1, MDA-MB231
[14] = surface PD-L1 flow cytometry, MCF7; settings: glycan lost; control: WT PD-L1, MCF7
[15] = molecular target: PD-1 on IcAR-PD-1 cells (Immune Checkpoint Artificial Reporter overexpressing PD-1) (human) (UniProt Q15116); remark: listed apart in the source

percent blocking of the mIL-2 signal of IcAR-PD-1 cells by Cemiplimab (anti-PD-1, 10 µg/mL), fixed MCF7 cells [1]: 53%
percent blocking of the mIL-2 signal of IcAR-PD-1 cells by Cemiplimab (anti-PD-1, 10 µg/mL), fixed MDA-MB231 cells [1]: 19.6%
percent blocking of the mIL-2 signal of IcAR-PD-1 cells by Nivolumab (anti-PD-1, 10 µg/mL), fixed MCF7 cells [1]: 98.6%
percent blocking of the mIL-2 signal of IcAR-PD-1 cells by Nivolumab (anti-PD-1, 10 µg/mL), fixed MDA-MB231 cells [1]: 83.2%
percent blocking of the mIL-2 signal of IcAR-PD-1 cells by Pembrolizumab (anti-PD-1, 10 µg/mL), fixed MCF7 cells [1]: 100%
percent blocking of the mIL-2 signal of IcAR-PD-1 cells by Pembrolizumab (anti-PD-1, 10 µg/mL), fixed MDA-MB231 cells [1]: 91.6%
percent of CD107a+ cells among CD8+ PD-1+ TCM cells (degranulation) after 4 h co-culture of anti-hCD3-activated PBMCs with MCF7 cells [2]: 3.1%
percent of CD107a+ cells among CD8+ PD-1+ TCM cells (degranulation) after 4 h co-culture of anti-hCD3-activated PBMCs with MDA-MB231 cells [2]: 3.7%
percent blocking of the mIL-2 signal of IcAR-PD-1 cells by the anti-PD-1 antibody Nivolumab (1.5-40 µg/mL), MCF7 cells [4]: > 50%
Substance: PD-L1 N35A glycosylation mutant (from UniProt Q9NZQ7 19-290) (ligand)
percent lysis of MCF7 target cells by PBMCs (killing assay) [3]: 3.8%
percent lysis of MDA-MB231 target cells by PBMCs (killing assay) [3]: 12.2%

mIL-2 response of IcAR-PD-1 cells incubated 24 h with formalin-fixed MCF7 cells, no antibody; fold reduction against PD-L1WT (fold reduction) [5]: 22
mIL-2 response of IcAR-PD-1 cells incubated 24 h with formalin-fixed MDA-MB231 cells, no antibody; fold reduction against PD-L1WT (fold reduction) [5]: 10
percent of CD107a+ cells among CD8+ PD-1+ TCM cells (degranulation) after 4 h co-culture of anti-hCD3-activated PBMCs with MCF7 cells [2]: 6.1%
percent of CD107a+ cells among CD8+ PD-1+ TCM cells (degranulation) after 4 h co-culture of anti-hCD3-activated PBMCs with MDA-MB231 cells [2]: 10.3%
percent blocking of the mIL-2 signal of IcAR-PD-1 cells by anti-PD-1 antibodies Pembrolizumab, Nivolumab, Cemiplimab, all concentrations, MDA-MB231 and MCF7 cells [6]: 100%
Substance: PD-L1 Nx4 mutant (all four N-glycosylation sites replaced by alanine) (from UniProt Q9NZQ7 19-290) (ligand)
percent lysis of MCF7 target cells by PBMCs (killing assay) [3]: 7%
percent lysis of MDA-MB231 target cells by PBMCs (killing assay) [3]: 39.1%

Substance: PD-L1: N35A
expression_or_secretion [7]: increases, decreased by approximately 35% in MDA-MB231 PD-L1N35A cells and about 45% in MCF7 PD-L1N35A cells
localisation_or_trafficking [8]: no change
localisation_or_trafficking, fold_change [9]: no change, a slight increase in total-cellular PD-L1 levels was observed in PD-L1N35A mutant MDA-MB231 cells
expression_or_secretion [10]: no change
other: antibody blockade of PD-L1/PD-1 interaction [11]: decreases
expression_or_secretion [12]: increases
expression_or_secretion, fold_change [13]: no change
expression_or_secretion, fold_change [14]: no change

Substance: PD-L1: N192A
expression_or_secretion, fold_change [13]: no change
expression_or_secretion, fold_change [14]: no change

Substance: PD-L1: N200A
expression_or_secretion, fold_change [13]: no change
expression_or_secretion, fold_change [14]: no change

Substance: PD-L1: N219A
expression_or_secretion, fold_change [13]: no change
expression_or_secretion, fold_change [14]: no change

Substance: WT PD-L1 (programmed death-ligand 1) (from UniProt Q9NZQ7 19-290)
concentration of the anti-PD-1 antibody Pembrolizumab that completely blocked the mIL-2 signal of IcAR-PD-1 cells, MDA-MB231 and MCF7 cells [15]: 20 µg/mL
